Experimental data from article PMC6093232, “PROMIS, global analysis of PROtein–metabolite interactions using size separation in Arabidopsis thaliana” (The Journal of Biological Chemistry, 2018).

Target: His6-GAPC1/2 (cytosolic glyceraldehyde-3-phosphate dehydrogenase, GAPC1 or GAPC2) (A. thaliana, UniProt P25858 1-338)
Test: nano-DSF (thermal shift, Prometheus NT.48); plant GAPCs 0.2–0.25 mg/ml with 25 μM (GAPC1/2, GAPCP1) or 50 μM (GAPCP2) dipeptide in 1× PBS; thermal ramp 2 °C/min, 20–90 °C; Tm from F350/F330
Conditions: both partners purified

His6-GAPC1/2 (cytosolic glyceraldehyde-3-phosphate dehydrogenase, GAPC1 or GAPC2), sequence (P25858 whole entry): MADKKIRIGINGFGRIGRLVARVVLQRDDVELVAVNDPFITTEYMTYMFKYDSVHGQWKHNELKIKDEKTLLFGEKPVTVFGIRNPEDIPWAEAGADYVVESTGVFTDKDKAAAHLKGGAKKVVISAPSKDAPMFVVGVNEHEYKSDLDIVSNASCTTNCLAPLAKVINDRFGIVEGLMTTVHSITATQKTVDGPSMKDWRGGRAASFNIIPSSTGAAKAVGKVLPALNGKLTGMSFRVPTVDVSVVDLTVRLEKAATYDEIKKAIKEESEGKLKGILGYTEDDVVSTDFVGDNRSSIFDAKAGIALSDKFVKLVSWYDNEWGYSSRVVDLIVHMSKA

B1: dipeptide Tyr–Asp (peptide)
peptide: YD
notes: free dipeptide Tyr–Asp, printed in three-letter code; source: synthetic peptide; bought: Eurogentec
In the case of B1, the “decrease of Tm with 25 μM Tyr–Asp” value is reported as ~1 °C.
